Experimental findings from US20260028403A1 (Zymeworks, published 2026) are described below.

The labels stand for the following.
B1: v34891 (parental huTN228 OAA) (antibody, V domains shown)
VH: QVQLQESGPGLVKPSETLSLTCAVSGFSLTSYGVHWIRQPPGKGLEWLGVIWPGGGTNFNSALMSRLTISEDTSKNQVSLKLSSVTAADTAVYYCARDRAYGNYLYAMDYWGQGTLVTVSS
VL: DIQMTQSPSSLSASVGDRVTITCRASESVEYYVTSLMQWYQQKPGKAPKLLIYAASNVDSGVPSRFSGSGSGTDFTLTISSLQPEDIATYYCQQSRKVPFTFGGGTKVEIK
notes: one-arm Fab antibody (OAA) format; also called huTN228 parental one-arm Fab antibody
B2: v37869 (antibody, V domains shown)
VH: B1 VH
VL: B1 VL with V33A
notes: OAA format as v34891; also called huTN228 V1035A (VL) OAA
B3: v37858 (antibody, V domains shown)
VH: B1 VH with L105A
VL: B1 VL
notes: OAA format as v34891; also called huTN228 L1112AA (VH) OAA
B4: v37844 (antibody, V domains shown)
VH: B1 VH with S31A
VL: B1 VL
notes: OAA format as v34891; also called huTN228 S1036A (VH) OAA
B5: v37851 (antibody, V domains shown)
VH: B1 VH with N58A
VL: B1 VL
notes: OAA format as v34891; also called huTN228 N1066A (VH) OAA
B6: v37847 (antibody, V domains shown)
VH: B1 VH with P53A
VL: B1 VL
notes: OAA format; also called huTN228 P1058A (VH) OAA
B7: v37875 (antibody, V domains shown)
VH: B1 VH
VL: B1 VL with D59A
notes: OAA format as v34891; also called huTN228 D1068A (VL) OAA
B8: v37890 (antibody, V domains shown)
VH: B1 VH with A23T
VL: B1 VL
notes: OAA format as v34891; also called huTN228 A1024T (VH) OAA
B9: v37888 (antibody, V domains shown)
VH: B1 VH
VL: B1 VL with N57Q
notes: OAA format as v34891; also called huTN228 N1066Q (VL) OAA
B10: v37855 (antibody, V domains shown)
VH: B1 VH with G102A
VL: B1 VL
notes: OAA format as v34891; also called huTN228 G1111A (VH) OAA
B11: v37870 (antibody, V domains shown)
VH: B1 VH
VL: B1 VL with T34A
notes: OAA format as v34891; also called huTN228 T1036A (VL) OAA
B12: v37884 (antibody, V domains shown)
VH: B1 VH with L105I
VL: B1 VL
notes: OAA format as v34891; also called huTN228 L1112AI (VH) OAA
B13: v37845 (antibody, V domains shown)
VH: B1 VH with Y32A
VL: B1 VL
notes: OAA format; also called huTN228 Y1037A (VH) OAA
B14: v37876 (antibody, V domains shown)
VH: B1 VH
VL: B1 VL with S60A
notes: OAA format as v34891; also called huTN228 S1069A (VL) OAA
B15: v37883 (antibody, V domains shown)
VH: B1 VH with N103Q
VL: B1 VL
notes: OAA format as v34891; also called huTN228 N1111AQ (VH) OAA
B16: v37854 (antibody, V domains shown)
VH: B1 VH with Y101A
VL: B1 VL
notes: OAA format as v34891; also called huTN228 Y1110A (VH) OAA
B17: v37891 (antibody, V domains shown)
VH: B1 VH with L48I
VL: B1 VL
notes: OAA format as v34891; also called huTN228 L1053I (VH) OAA
B18: v37874 (antibody, V domains shown)
VH: B1 VH
VL: B1 VL with N57A
notes: OAA format; also called huTN228 N1066A (VL) OAA
B19: v37868 (antibody, V domains shown)
VH: B1 VH
VL: B1 VL with Y32A
notes: OAA format as v34891; also called huTN228 Y1034A (VL) OAA
B20: v37841 (antibody, V domains shown)
VH: B1 VH with S28A
VL: B1 VL
notes: OAA format as v34891; also called huTN228 S1029A (VH) OAA
B21: v37856 (antibody, V domains shown)
VH: B1 VH with N103A
VL: B1 VL
notes: OAA format; also called huTN228 N1111AA (VH) OAA
B22: v37843 (antibody, V domains shown)
VH: B1 VH with T30A
VL: B1 VL
notes: OAA format as v34891; also called huTN228 T1035A (VH) OAA
B23: v37897 (antibody, V domains shown)
VH: B1 VH with V78F
VL: B1 VL
notes: OAA format as v34891; also called huTN228 V1087F (VH) OAA
B24: v37879 (antibody, V domains shown)
VH: B1 VH
VL: B1 VL with V98A
notes: OAA format as v34891; also called huTN228 V1114A (VL) OAA
B25: v37878 (antibody, V domains shown)
VH: B1 VH
VL: B1 VL with K97A
notes: OAA format as v34891; also called huTN228 K1109A (VL) OAA
B26: v37882 (antibody, V domains shown)
VH: B1 VH with S31T
VL: B1 VL
notes: OAA format as v34891; also called huTN228 S1036T (VH) OAA
B27: v37898 (antibody, V domains shown)
VH: B1 VH
VL: B1 VL with M37L, Q38N
notes: OAA format as v34891

Changes are numbered by the printed parent chain. Names and notes keep the numbering of the source.

In this assay the target is huCD28 (human, UniProt P10747 19-152, limits assumed). Nature of the assay: SPR, OAA format.
Turning to B1, the “Fold-change from WT” value turned out to be 1 fold, the dissociation constant Kd is 87.9 nM, the koff amounted to 0.00319 s⁻¹ and the association rate constant (kon) is 36300 M⁻¹ s⁻¹.

With B2, the “Fold-change from WT” value was determined as 4.9 fold, binding was put at a Kd of 431 nM, the off-rate constant (koff) was found to be 0.0277 s⁻¹ and the association rate constant (kon) came out at 67700 M⁻¹ s⁻¹.

In the case of B3, the “Fold-change from WT” value is 3.91 fold, binding was characterised by a dissociation constant (Kd) of 344 nM, the koff came to 0.0221 s⁻¹ and the association rate constant (kon) stood at 64700 M⁻¹ s⁻¹.

B4: the “Fold-change from WT” value came to 0.7 fold, the dissociation constant Kd is 61.6 nM, the koff is 0.00313 s⁻¹ and the association rate constant (kon) is 50800 M⁻¹ s⁻¹.

For B5, the “Fold-change from WT” value amounted to 4.69 fold, binding was characterised by a dissociation constant (Kd) of 412 nM, the koff worked out at 0.037 s⁻¹ and the kon stood at 90900 M⁻¹ s⁻¹.

On to B6, for which the “Fold-change from WT” value was determined as 1.39 fold, the dissociation constant (Kd) came to 122 nM, the koff was determined as 0.00626 s⁻¹ and the kon was found to be 51100 M⁻¹ s⁻¹.

In the case of B7, the “Fold-change from WT” value came to 0.53 fold, the dissociation constant Kd was 46.6 nM, the koff was 0.00315 s⁻¹ and the kon is 67600 M⁻¹ s⁻¹.

On to B8, for which the “Fold-change from WT” value was 0.66 fold, the dissociation constant Kd came out at 57.8 nM, the koff came out at 0.00349 s⁻¹ and the kon was determined as 60800 M⁻¹ s⁻¹.

Consider B9, for which the “Fold-change from WT” value is 0.61 fold, binding was characterised by a dissociation constant (Kd) of 53.8 nM, the koff is 0.00319 s⁻¹ and the kon came out at 59200 M⁻¹ s⁻¹.

With B10, the “Fold-change from WT” value worked out at 0.84 fold, the Kd is 73.7 nM, the off-rate constant (koff) is 0.00342 s⁻¹ and the kon worked out at 46400 M⁻¹ s⁻¹.

B11: the “Fold-change from WT” value is 3.08 fold, the Kd stood at 271 nM, the koff was found to be 0.0258 s⁻¹ and the kon is 96800 M⁻¹ s⁻¹.

In the case of B12, the “Fold-change from WT” value was determined as 1.51 fold, the Kd is 133 nM, the koff came to 0.00993 s⁻¹ and the association rate constant (kon) came to 76000 M⁻¹ s⁻¹.

On to B13, for which the “Fold-change from WT” value amounted to 2.81 fold, binding was put at a Kd of 247 nM, the koff was found to be 0.0139 s⁻¹ and the kon was 56600 M⁻¹ s⁻¹.

As to B14, the “Fold-change from WT” value is 0.64 fold, the dissociation constant (Kd) worked out at 56.4 nM, the koff turned out to be 0.00326 s⁻¹ and the kon amounted to 57800 M⁻¹ s⁻¹.

For the molecule B15, the “Fold-change from WT” value stood at 3.81 fold, the Kd was determined as 335 nM, the dissociation rate constant (koff) is 0.029 s⁻¹ and the on-rate constant (kon) stood at 86800 M⁻¹ s⁻¹.

Turning to B16, the “Fold-change from WT” value came to 0.9 fold, binding was put at a Kd of 79 nM, the koff was found to be 0.0034 s⁻¹ and the on-rate (kon) came to 43200 M⁻¹ s⁻¹.

In the case of B17, the “Fold-change from WT” value worked out at 0.54 fold, the Kd is 47.7 nM, the koff worked out at 0.0028 s⁻¹ and the on-rate constant (kon) was determined as 58800 M⁻¹ s⁻¹.

Take B18: the “Fold-change from WT” value was 0.59 fold, the Kd was 52.1 nM, the koff was 0.00321 s⁻¹ and the kon was found to be 61800 M⁻¹ s⁻¹.

With B19, the “Fold-change from WT” value came out at 5.37 fold, the Kd was found to be 472 nM, the koff came out at 0.0601 s⁻¹ and the kon amounted to 126000 M⁻¹ s⁻¹.

Turning to B20, the “Fold-change from WT” value stood at 0.72 fold, binding was put at a Kd of 63.4 nM, the koff worked out at 0.00322 s⁻¹ and the on-rate (kon) turned out to be 51100 M⁻¹ s⁻¹.

For B21, the “Fold-change from WT” value turned out to be 6.16 fold, binding was put at a Kd of 542 nM, the koff came to 0.0254 s⁻¹ and the kon worked out at 47100 M⁻¹ s⁻¹.

B22: the “Fold-change from WT” value came to 0.73 fold, the Kd was found to be 64 nM, the koff is 0.00301 s⁻¹ and the kon amounted to 47100 M⁻¹ s⁻¹.

B23: the “Fold-change from WT” value was determined as 0.88 fold, the equilibrium dissociation constant (Kd) was found to be 77.4 nM, the koff is 0.00487 s⁻¹ and the kon stood at 63000 M⁻¹ s⁻¹.

In the case of B24, the “Fold-change from WT” value is 0.39 fold, the Kd was determined as 34.7 nM, the dissociation rate constant (koff) stood at 0.00174 s⁻¹ and the on-rate (kon) came out at 50300 M⁻¹ s⁻¹.

Take B25: the “Fold-change from WT” value amounted to 1.93 fold, binding was put at a Kd of 170 nM, the off-rate (koff) amounted to 0.0117 s⁻¹ and the kon was found to be 70800 M⁻¹ s⁻¹.

Take B26: the “Fold-change from WT” value is 0.59 fold, the Kd was determined as 51.7 nM, the koff worked out at 0.00311 s⁻¹ and the kon was determined as 60500 M⁻¹ s⁻¹.

Consider B27, for which the “Fold-change from WT” value amounted to 0.84 fold, the Kd amounted to 73.7 nM, the off-rate constant (koff) was 0.00573 s⁻¹ and the kon was determined as 77900 M⁻¹ s⁻¹.
